Data reported in patent publication US11643691B2, “Predictive biomarkers for cancer immunotherapy and methods of using same” (Duke University, priority 2018, dated 2023).

What was measured:
CD4+FoxP3+ Treg cells = assay: In vitro Treg cell assay (conditioned DCs with naive CD4+ T cells); assay type: cell-based, mice; details: treated DCs co-cultured with naive CD4+ T cells
Procedure: Dendritic Cell Conditioning: DCs were treated with Wnt3a (100 ng/mL), Wnt5a (200 ng/mL), LPS (1 μg/mL), 1-MT (1 mM), 2DG (1 mM), or ETO (100 μM), 2-DG(2-deoxy-d-glucose, 1 mM), Oligomycin (1 μM), succinylacetone (250 μM), or vehicle control either for 24 or 48 hrs prior to their use in both in vitro and in vivo experiments.
Treg Cell Assays: For in vivo Treg cell assays, DCs (C57, H-2b) were pre-treated for 48 hours and delivered by intradermal injection into the footpad of Foxp3-mRFP mice. Draining inguinal and popliteal lymph nodes were resected 5 days later and analyzed for CD4+Foxp3+ Treg cells. For in vitro Treg cell assays, DCs (Balb/c, H-2d) were pre-treated for either 24 or 48 hrs, and re-plated at a 1:3 DC:T-cell ratio with purified allogeneic naive Foxp3-mRFP(H-2b) CD44loCD62LhiCD4+ Tcells. These co-cultures were incubated for 6 days and quantitated for CD4+FoxP3+ Treg cells by flow cytometry.

DCs = assay: qRT-PCR / qPCR array / immunoblot gene expression in DCs; assay type: cell-based, Murine
Procedure: Dendritic Cell Conditioning: DCs were treated with Wnt3a (100 ng/mL), Wnt5a (200 ng/mL), LPS (1 μg/mL), 1-MT (1 mM), 2DG (1 mM), or ETO (100 μM), 2-DG(2-deoxy-d-glucose, 1 mM), Oligomycin (1 μM), succinylacetone (250 μM), […]
(§1) Antibodies, Immunoprecipitation, and Immunoblot Analysis: Primary antibodies including CPT1A (Cell signaling), PPAR-γ (Santa Cruz Biotechnology), β-catenin, β-actin (Millipore), p-AMPK(T172)/AMPK (Cell signaling), p-AKT(T308)/Akt (Cell Signaling) were used at 1:1000. Secondary antibodies including goat anti-rabbit IgG-HRP (Millipore) and goat anti-mouse IgG-HRP (Millipore) were used at 1:5000. Cells were lysed in Laemmli sample buffer after treatment and subjected to SDS-polyacrylamide gel electrophoresis and immunoblot analysis. For immunoprecipitation, cells were lysed in radio immunoprecipitation assay (RIPA) buffer [10 mM sodium phosphate (pH 8.0), 150 mM NaCl, 1% Triton X-100, 1% sodium deoxycholate, and 0.1% SDS in the presence of 1 mM DTT, 1 mM phenylmethylsulfonylfluoride, and a protease inhibitor cocktail (Sigma)], precleared with protein A beads, and then incubated with 1 μg of antibody against β-catenin or isotype control IgG with protein A-agarose beads on a rotator overnight at 4° C. After 3 washes with RIPA buffer, immunoprecipitated complexes were eluted in sample buffer by boiling and subjected to immunoblot analysis. Immunoblots were visualized by chemiluminescence substrate (ThermoFisher) and imaged by a ChemiDoc XRSplus system (BioRad).
RNA Isolation, RT-qPCR, qPCR Array: Total RNA was isolated by RNeasy Plus Mini Kit(Qiagen). RNA(500 ng) were used in cDNA Synthesis (iScript, BioRad). Quantification of mRNA for genes involved in PPARγ signaling was performed using Mouse PrimePCR PPAR Array according to the manufacturer's protocol (BioRad). Real-time PCR was performed using an ABI7500 Real-Time PCR system (Life Technologies). Data analysis utilized the PrimePCR Analysis Software (BioRad). Conventional qPCR was performed using validated primers, and SsoAdvanced Universal SYBR Green Super mix (BioRad) or Taqman probes (Applied Biosystems) for heme synthesis enzymes.

Akt = Akt Thr-308 phosphorylation immunoblot of DCs; assay type: cell-based, Murine; details: Wnt5a 200 ng/mL, 48 hrs
Text: as §1, with “Data is representative of 3 independent experiments. […] Data is representative of 3 independent experiments. […] Antibodies,” for “Antibodies,”

B1: Wnt5a: Recombinant Human/Mouse Wnt5a Protein (R&D Systems) (protein, UniProt P41221 62-380, looked up)
Protein Wnt-5a: IIGAQPLCSQLAGLSQGQKKLCHLYQDHMQYIGEGAKTGIKECQYQFRHRRWNCSTVDNTSVFGRVMQIGSRETAFTYAVSAAGVVNAMSRACREGELSTCGCSRAARPKDLPRDWLWGGCGDNIDYGYRFAKEFVDARERERIHAKGSYESARILMNLHNNEAGRRTVYNLADVACKCHGVSGSCSLKTCWLQLADFRKVGDALKEKYDSAAAMRLNSRGKLVQVNSRFNSPTTQDLVYIDPSPDYCVRNESTGSLGTQGRLCNKTSEGMDGCELMCCGRGYDQFKTVQTERCHCKFHWCCYVKCKKCTEIVDQFVCK
Question: B1 was tested. Which “DC-mediated Treg cell differentiation in vitro” value (CD4+FoxP3+ Treg cells) did it give?
Answer: enhanced Treg cell differentiation in vitro

Question: What about the “IL-6 and IL-12 expression in primary DCs” value (DCs; qRT-PCR) of the same molecule?
Answer: suppresses IL-6 and IL-12 expression in primary DCs

Question: And the “expression of Alas1 and further enzymes of PpIX synthesis” value (DCs; qRT-PCR)?
Answer: upregulated expression of Alas1 and several additional enzymes involved in PpIX synthesis

Question: What about the “expression of TCA cycle enzymes (Idh1, Idh2, Oghd, Dld, Dlst)” value (DCs; qRT-PCR) of the same molecule?
Answer: stimulated the expression of isocitrate dehydrogenase

Question: And the “expression of hexokinase (Hk) and phosphofructokinase-1 (Pfk1)” value (DCs; qRT-PCR, after 4-8 hr of stimulation)?
Answer: downregulated the expression of the rate-limiting glycolytic enzymes

Question: And the “PPAR-γ (Pparg) and CPT1A (Cpt1a) expression” value (DCs; real-time qPCR and immunoblot, murine and human DCs for rWnt5a)?
Answer: induces upregulation of Pparg and Cpt1a

Question: And the “DC Akt Thr-308 phosphorylation” value (Akt)?
Answer: no impact
